Measurements published in the DeepSol protein solubility set.

Assay: soluble on expression in E. coli; label from the status in PepcDB or PDB records

Sequence	soluble on expression in E. coli
MAGDPMNEQSQAKSPDTLRAMVAGTLANFQHPTLKHNLTTLKALHHVAWMDDTLHVELVMPFVWNSAFEVLKEQCSADLLRITGAKAIDWKLSYNIATLKRVKNQPGINGVKNIIAVSSGKGGVGKSSTAVNLALALAAEGAKVGVLDADIYGPSIPTMLGAEDQRPTSPDGTHMAPIMSHGLATNSIGYLVTDDNAMVWRGPMASKALMQMLQETLWPDLDYLVLDMPPGTGDIQLTLAQNIPVTGAVVVTTPQDIALIDAKKGIVMFEKVEVPVLGIVENMSMHICSNCGHHEPIFGTGGAQKLAEKYHTQLLGQMPLHISLREDLDRGTPTVVSRPESEFTAIYRELADRVAAQLYWQGEVIPGEIAFRAVLEHHHHHH	soluble
GPGSMASSSTADDHSAVAGIVASSASVCGSRDAAASPPTALPKLGSAKQQRTERAFLFDRYPSRKIALRLAYHGHVHDGLAKQKETDNTVEGLVCDALRRLRLIPEDGPHNFGRCGRTDKGVSALGNAFSLTARASCTGDAEPQLPPLDYCSMLNNVLPSTIRIVGCALVDDAFDARFSCVHRTYRYYFFHRGLNLAAMQEAAAFFLGTHNFRNFCKMDVVNVSNFVRTVFSVGLHPSEALPELISYLEIRANSFLYHQIRCIMEVLFLVGRGLEVPSVVQTLLELGDRKPTYPLADGTPLILWDCGFDNVQWQMSHCAFHAMEQELQDIGTALLIRATSATAMRSQLFRWYTGTADVFRKDTSEKDASGEDRSRAVVRRDPELRRLDGWSITGCDWTDPGTAGQMKARKRDLLYYLRTEAKNGQPLPTTTSCEEKTSQTAETIASGALAPVNYVPLLQRETERTYEEEVRELSGKKRARYEVNEAKKAAAAAAHKEVVSED	not soluble
RPVREVGMYNMAMLMRSTGQSSFGQSVRIAENFLNEFPRSSHREQMAAILVESYFTGKDYNSSLRSIQKIAQPTASILAAKQFVLNRMAEQKEAAGYDSEALSFVSSSISMGNKGEYFPEAYFLRGNLRYRAGDFPTAAADYRAYISAAGDRDAANLPLGYYRLGYSLFNAERYDMALEAFKEYVSRSGIAPNLSADAYARIGDCRYMKRDFHGAREAYSMAYRVYPSGGDYALLRRARLEGLAKQYADQIQTLDKLIREFPDSRHLTAALYEKGCGAVLSGKHNVAEEAFNAVVKRSPDSREARQSSLQLGLLYYNTGRTKEAIRTYQRIIDRYPRSEETTVALSDLRSIYLEEDRIDEYSTYVRGLKDKVSIAPSETEQLGFLSAERKYRRRQPDARRDLEAYLERYPQGSDRHKAELYLADLDYQAGNADAAYNRYSRLVNSPGLPEDYKIDARLRLGRMQYERKEYKAALQSFQSVLDTDGAEAVRDQAVQGVTESAYADKDYRRVIDVIAGLKNQAALPHTLRLYRAKSYQALKMNREAIADYELLAEDFSTATGAEAVVMQAQLEMEAKRLSKAKSILEKFIAKSTPQQYWLARGFILLSDIYKKEGDTFTARQYLESLEKNYPNHEDDIHEQIAQRLE	not soluble
MRELQADFVKPARIDILLDMPPASRDLQLKHSWNSEDRSLNIFVKEDDKLTFHRHPVAQSTDCIRGKVGLTKGLHIWEIYWPTRQRGTHAVVGVCTADAPLHSVGYQSLVGSTEQSWGWDLGRNKLYHDSKNCAGVTYPAILKNDEAFLVPDKFLVALDMDEGTLSFIVDQQYLGIAFRGLRGKKLYPIVSAVWGHCEITMRYIGGLDPEPLPLMDLCRRTIRQKI	soluble
MATCGRRDDILDLLKSLEQQTYKNFELIVVDQNDTPISDLFDEYKDKFSINYIYTPIKGLSRARNAGLKVADGDFIAFPDDDCIYEKNVLESILETFNSNKDVHFISTNTTNVEGTGSLIHAPNTDIILNNKYGFMGPSFTLFFTKQFVQDVGTFDEDLGVGSGTIYGAGEETDFVLRGMKQNYTGLFRKDLFVYHPVKEEIINEQSLKRAISYAGGFGRIIRLHYGFPYFLRAVAAATFRMTQNISNDKRKFHANRLRGIVRGYLK	not soluble
GSHMAPGFTISFVNKTIIVTGGNRGIGLAFTRAVAAAGANVAVIYRSAADAVEVTEKVGKEFGVKTKAYQCDVSNTDIVTKTIQQIDADLGPISGLIANAGVSVVKPATELTHEDFAFVYDVNVFGVFNTCRAVAKLWLQKQQKGSIVVTSSMSSQIINQSSLNGSLTQVFYNSSKAACSNLVKGLAAEWASAGIRVNALSPGYVNTDQTAHMDKKIRDHQASNIPLNRFAQPEEMTGQAILLLSDHATYMTGGEYFIDGGQLIW	soluble
MSLEPDNQTPLKILVTGASGFVGLRVLTQAQNIGYALVAQSRSQQPYSFEQVLLDITPNTDWERALVGVDCVVHCAARVHQMQETEADALKAYRDVNTQGTLNLAKQAVSAGVKRFIFLSSIKVNGEQTKAGSAFQHDDQHIPSDPYGLSKYEAEQQLLELAAETGLEVVIIRPPLVYGEGVKANFLSMMNWVKKQIPLPLGAVGNMRSLVYLDNLVDLILVCCQHPKAAGEIFLVSDNHDVSLTTLLRTIAQAMQIRPRLLPIPQTGLQWLLRLLGKPELGQRLCGNLQLDIAHTQKTLHWSPPVSFEQGIARTVNFYLSQSSKEGHHHHHH	soluble
MAKKIEKNIITGLDIGTSKIIALIGEVTSDGTIEIIGIGRHPSRGLKRGVVVDIETTVNSIQRAVQEAELMAGCEVRTVYAGIAGSHIRSLNSHGIVAIRDQEVSQADVERVIDAAKAVAIPADQ	not soluble
MSSTAEEMAAAFEQTGGPDLTTGSGKRTKSDRVEHKHASQPGGDTRKVVQTASNGEAKRKEK	not soluble
MLKRTRSLVCLCLAAAISSPTTYANSIDLPDIGTAAGGTLSIDQELIYGDAYMRMLRASKPIVNDPVINEYIDSLGHRLVANANDVKTPFHFFMIRDRNINAFAFFGGYVALHSGLFLHARSESELASVVAHEIAHVTQRHLARSMEDQARRSPATLAALAGALLLSIASPEAGMAAITAATAGNMQSQINYTRSNEKEADRFGIATLAKAGFDVQAMPRFFGRLADEYRYASKPPPMLLTHPLPEDRVADSRQRAQAYPPMRIAPSIDYHLARARIVARYAGIDGQAALGWFERTQKKASADIMPSFDYGRALVHLDNKRLSQAEPILKKLLAQDPGNPFYLDAMTDLYIEKKQPQKAVELLNSALKRNPQNKVLTINYANALLEANQNDQAVRTLQRYTHDNPEDSNGWQLLSKGYHALGRSDEELAARAEILALRANWNKAIQYYSEASKMAELGSLEQARYDARIDQLMIQRDRFMALQLEHHHHHH	soluble
MSLENIRNIAVIAHVDHGKTTMVDELLKQSGTFSEREQISERVMDSNDIEKERGITILSKNTAINYKGTKINIIDTPGHADFGGEVERVLKMIDGVLLLVDAQEGVMPQTKFVVKKALSLGLKPIVVINKIDKPAADPERVINEIFDLFVALDANDEQLDFAIVYAAAKNGYAKLDLNDESDNMEPLFKTILERVPAPSGSDENPLQLQVFTLGYDNFVGKIGIARIFNGVVKKNQSVMLAKADGTKVNGRISKLIGFMGLEKMDIEEAGSGDIVAIAGFEALDVGDSVVDPNNPMPLDPLHIEEPTLSIVFSVNDGPLAGTEGKHVTSNKIAERLEAEMKTNIAMKYESTGEGKFKVSGRGELQITILAENMRREGFEFCMGRPEVIVKVEDGVKTEPFEHLVIDVPEEFSGAVIEKLGKRKAEMKTMAPTGDGQTRLEFEIPARGLIGFRSQFLTDTKGEGVMNHSFLEFRPFSGAVEKRNNGALISMENGVALGYSLFNLQERGVLFIEPQTKVYTGMIIGEHSRPNDLDVNPIKGKNLTNVRASGSDDAIKLVPPRKLSLERALEWIEEDELVEVTPVNVRVRKRYLDPTQRKRMEKAKEGHHHHHH	soluble
MSLQRFNQRVWMMFGEFNLIDKYFSNRQAQRKDVHLALGDDCAIVKVPENSRVAISTDTLVAGTHFLAQANPAWVAHKALASNISDLAAMGATPAWVSLALTLPEIDDAWLTPFCDAFFELAKYYNVQLIGGDTTKGPLSITLTVQGFLPKEQAMLRSGAKVGDWLYVTGDLGDSQAGLDVILDPEKRHLPFADILEQRHYLSTPRIVAGQALVHLASSAIDISDGLIADLQHILRRSNVGASIDVSLLPLSKELLQFVDSVTSAQQYALTSGEEYELCFTIPEENRGSLENALAHCGTKVTCIGQIRPAGTFELHNQGKKLDWQLAGYDHFKVKAEGHHHHHH	soluble
MGSDKIHHHHHHMRLVNIAYVGEGEVLARPLVSPNGKVLLQAGVKLTRNYIDKLSRLGFDTMFIEDDTFQDVEIYSAVSIKTREAAYASLENLSKNLNEAQPHTVNLGEVKKAVQNIIADLLYSKDMLGNVMEIQGYDDYTFHHSVNTTIIALIMGISMGWHNGKLLELGMGVLMHDVGKIKIPSEILNKRGPLTPEEFAEIKKHAEYGFEILRKNHDINLLSAHIALQHQERWDGSGYPRGLKGNQIHEYGRLAAVADVYEALTSKRVYRNALQPYEAYEYVIANSDTLFEPKVVQNTFSKCITPYPTGTGVRLTNGLRGNVVKQNFTFPTRPYVRMTHEGEIRLIAPIDYNLAEHPSLMIVGIENK	not soluble
AHHHHHHGSNFQQEILIIKSEIYPIVSKHYPKNTRREVISLYDLITFAILAHLHFNGVYKHAYRVLIEEMKLFPKIRYNKLTERLNRHEKLLLLAQEELFKKHAREYVRILDSKPIQTKELARKNRKDKEGSSEIISEKPAVGFVPSKKSFTMGTS	not soluble
MGSDKIHHHHHHQSMKKEEVPQNISAFPLGKENTGFKQYFTGESWLAPLTGNKDLNVPMSNVTFEPGCRNNWHSHTGGQILIAVGGVGYYQERGKAARRLLPGDVVEIAPDIEHWHGAAPDSWFSHLAIGCNPQTNKNIWLEQVDDQQYAEATKDNGGTGLSATDPELDAIFGNFTKEVQQYGNLDTKTRLMVTLASNIASQAQTEYRMMLESALNAGITPIEIKEILYQAVAYAGMAKVMDFVGITNEALLAHGVRLPLEGQAVVSAETRFDKGLALQKSIFGERIDQMHKNAPENQKHIQRYLSANCFGDYQTRGGLDVKTRELLTFSILVSLGGCESQVKGHIQGNVNVGNNKDTLLAVVTQLLPYIGYPRTLNAIACLNEVIPEK	not soluble
MDTTNQSEDIKPCDSDLMESILMFDEPISDILAHNKLWISHARTRSNFFPQEGRHISNQHTEAATSLKMWMLSKNLVVIVKRKDDIFPCKILTRNPENLFVARFLESGKEKHIQVEYSDIIMTRSELEKALPLCQHLIPARNWDDFYIIRDFEKATPYFEQGLSALVKPGQQFELQLEDAPDFYVMATVVKNYRGFLLVEYQNVSCVQKKTMPVFLFHFLMLFQFKRWIHMLSPYCHEIGWGKNEKQEYLKRGPYNRHMNVDLVAGLVKQSTNQKLGAVPEIVFRNNCPVPHRIPEYSACVYLDLDQKRFYFAHKVTTKTCRNNRHFFNISIGKNLVTSKQNNRPYEFHVYHPRILPYSVAKRMEVQIILPPDVKLLPDESNLDGYLRTYCNPCDKHKTSDRVQPSPKIAKKKNGPLLLDDTPDAMFRSRPLLGDNIGAHKEWTNFMNHIPDYKRKDLLKSMDTLKFCEIFRPTPTGALQLTAAEVTGQQECMLRLKVSGEDEPVYIHNADPHLYHLGACLDMELAINFHGEFFDEKPLKKNKNANNGFSSF	not soluble
MSLSASRAIKERDSRSHIKVLFPSMPYVYVSRLINEGLVRLAENDQGWEYSLATDCPKLSPTLYECTLRQGVRFQDGTPFNADSVIKNFDYFLAQPFNYTDIHRSLKAVEKVSPYKIRLILSQPYGMLFRDLARIFFYSDAYLRQYGWGGAETGANIKSAGSYGLGPYILVEGMITGRKQTPKAILKANPYYWEKGFPKIETITVFTELETQSALESLLEREGELDFMPIPFNKKIETLLSPYTKLIITPSTNNFTIYFNLHKHDSKVFDPKVRQALNCALNQENLLNFTYKKEGRPNTGAYTHEDCPFSLRELHEILRGLKFKVATQDSLLFLWRGIEYQLSRYGVELEFLLTTSEKEIYDLAQKNHQQTQEWDMLIQGTQDWYGRHPWPIFIRYQEGNPWSFVTGDIKMREAINQLFRHEQGTPEFEALCQTIIQRAKEKAYMLFIPTPHAVYGMNKELHFTPHGIGLQPLWKAEVTSEHWSLRGDKPYPESLQKPILPQREGHHHHHH	not soluble
